Test [1] has as its target MPER-TM1 (HIV-1 (strain not stated)). Description: ELISA. (ELISA stands for enzyme-linked immunosorbent assay.)
The next test has as its target 4E10 WT Fab. Description: SPR.
Test [2] concerns the target Recombinant gp41 (r-gp41; HIV-1MN isolate) (HIV-1 isolate MN, UniProt P05877). Description: ELISA.

Where no end group is shown, it is not given here.

Sequence of Recombinant gp41 (r-gp41; HIV-1MN isolate) (P05877 whole entry, looked up): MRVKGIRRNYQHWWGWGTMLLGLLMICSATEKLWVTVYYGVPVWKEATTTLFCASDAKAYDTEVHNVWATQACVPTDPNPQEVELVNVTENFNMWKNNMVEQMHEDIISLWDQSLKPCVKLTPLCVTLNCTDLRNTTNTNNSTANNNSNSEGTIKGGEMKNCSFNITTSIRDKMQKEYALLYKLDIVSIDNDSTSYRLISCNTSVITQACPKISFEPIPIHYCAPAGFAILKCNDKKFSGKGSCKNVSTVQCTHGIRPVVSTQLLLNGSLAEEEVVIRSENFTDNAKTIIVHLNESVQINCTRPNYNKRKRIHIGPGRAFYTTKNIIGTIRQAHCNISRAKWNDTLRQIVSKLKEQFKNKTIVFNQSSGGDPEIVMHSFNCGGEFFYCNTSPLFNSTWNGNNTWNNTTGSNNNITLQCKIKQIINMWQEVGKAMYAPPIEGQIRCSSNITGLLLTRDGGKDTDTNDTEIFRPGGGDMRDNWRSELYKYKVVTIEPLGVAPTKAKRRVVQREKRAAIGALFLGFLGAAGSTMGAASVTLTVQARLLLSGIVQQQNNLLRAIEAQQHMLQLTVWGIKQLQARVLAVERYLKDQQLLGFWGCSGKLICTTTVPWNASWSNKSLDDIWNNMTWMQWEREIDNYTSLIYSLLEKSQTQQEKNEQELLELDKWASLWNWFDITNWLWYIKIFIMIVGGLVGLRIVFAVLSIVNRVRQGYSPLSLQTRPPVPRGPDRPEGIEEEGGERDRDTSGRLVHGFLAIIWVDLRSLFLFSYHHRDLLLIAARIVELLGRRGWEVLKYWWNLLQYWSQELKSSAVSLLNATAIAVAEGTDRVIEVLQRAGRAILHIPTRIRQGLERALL

4E10 WT Fab: the EC50 (as a rule, the concentration that produces a half-maximal response) in test [1] was 1 nM. Still for that read-out and setting: the value for 4E10 IgG1 MAb (antibody) was 0.1 nM.

Consider NWFDITNWLWYIRRRR-NH2 [4E10ep variant (…-RRR)], for which, in the test with 4E10 WT Fab, the dissociation constant Kd (commonly the equilibrium constant for the complex coming apart) worked out at 21 nM; the dH (van't Hoff) is -11.5 kcal/mol; the koff – broadly, a measure of how fast the partners let go of each other – is 0.0011 s⁻¹.

B1: 4E10 WDWD Fab (Fab, V domains shown)
VH: VQLVQSGAEVKRPGSSVTVSCKASGGSFSTYALSWVRQAPGRGLEWMGGVIPLLTITNYAPRFQGRITITADRSTSTAYLELNSLRPEDTAVYYCAREGTTGDGDLGKPIGAFAHWGQGTLVTVSS
VL: EIVLTQSPGTQSLSPGERATLSCRASQSVGNNKLAWYQQRPGQAPRLLIYGASSRPSGVADRFSGSGSGTDFTLTISRLEPEDFAVYYCQQYGQSLSTFGQGTKVEVK
Consider B1, for which, in test [2], the binding result is “binds”.
